Residue numbers refer to the chain shown, from its start. Names may count otherwise.
B1: MoAb #5 (OMS645), 17D20_3521N11 IgG4 (antibody)
heavy: not shown
light: QPVLTQPPSLSVSPGQTASITCSGEKLGDKYAYWYQQKPGQSPVLVMYQDKQRPSGIPERFSGSNSGNTATLTISGTQAMDEADYYCQAWDSSTAVFGGGTKLTVLGQPKAAPSVTLFPPSSEELQANKATLVCLISDFYPGAVTVAWKADSSPVKAGVETTTPSKQSNNKYAASSYLSLTPEQWKSHRSYSCQVTHEGSTVEKTVAPTECS
B2: MoAb #6 (OMS646), 17D20_3521N11 IgG4 mutant (S228P hinge) (antibody)
heavy: not shown
light: B1 light
B3: 18L16 mother clone, wild type IgG4 format (antibody, V domains shown)
VH: QVTLKESGPVLVKPTETLTLTCTVSGFSLSNARMGVSWIRQPPGKALEWLAHIFSNDEKSYSTSLKSRLTISKDTSKSQVVLTMTNMDPVDTATYYCARMAILTAGGMDVWGQGTTVTVS
VL: LTQPPSVSASPGQTASITCSGDKLGDKYVSWYQQKPGRSPVLVIYRDTKRPSGIPERFSGSNYGNTATLTISGTQAVDEADYYCQAWDSGSGVFGGGTKVTVLA
B4: scFv mother clone 3F22 (scFv)
scFv: QVQLQQSGPGLVKPSQTLSLTCAISGDSVSSNSAAWNWIRQSPSRGLEWLGRTYYRSKWYNDYAVSVKSRITINPDTSKNQFSLQLNSVTPEDTAVYYCARDPFGVPFDIWGQGTMVTVSSKLSGSASAPKLEEGEFSEARVSYVLTQPPSVSVAPGQTARVTCGGNNIRSKNVHWYQQKPGQAPVLVVYDDTDRPSGIPERFSGSNSGNTATLTVSRVEAGDEADYYCQVWDTTTDHVVFGGGTKLTVLAAAGSEQKLISEEDLNSHHHHHH
B5: scFv mother clone 9P13 (scFv)
scFv: B4 scFv with V145E, P149L, L247V
B6: 17N16 mother clone, wild type IgG4 format (antibody, V domains shown)
VH: QVQLQQSGPGLVKPSQTLSLTCAISGDSVSSTSAAWNWIRQSPSRGLEWLGRTYYRSKWYNDYAVSVKSRITINPDTSKNQFSLQLNSVTPEDTAVYYCARDPFGVPFDIWGQGTMVTVSS
VL: SYVLTQPPSVSVAPGQTARITCGGNNIGSKNVHWYQQKPGQAPVLVVYDDSDRPSGIPERFSGSNSGNTATLTVSRVEAGDEADYYCQVWDTTTDHVVFGGGTKLTVL
B7: scFv mother clone 18L16 (scFv)
scFv: QVTLKESGPVLVKPTETLTLTCTVSGFSLSNARMGVSWIRQPPGKALEWLAHIFSNDEKSYSTSLKSRLTISKDTSKSQVVLTMTNMDPVDTATYYCARMAILTAGGMDVWGQGTTVTVSSKLSGSASAPKLEEGEFSEARVSYVLTQPPSVSASPGQTASITCSGDKLGDKYVSWYQQKPGRSPVLVIYRDTKRPSGIPERFSGSNYGNTATLTISGTQAVDEADYYCQAWDSGSGVFGGGTKVTVLAAAGSEQKLISEEDLNSHHHHHH

What was measured:
[1] = molecular target: T1, African Green monkey MASP-2 (in African Green monkey serum) (African Green monkey); experiment: cell-based or functional assay
[2] = molecular target: rat MASP-2 (in rat serum) (rat, UniProt Q9JJS8 20-685); experiment: cell-based or functional assay
[3] = molecular target: T2, human MASP-2 (human, UniProt O00187 16-686); experiment: cell-based or functional assay
[4] = molecular target: T2, human MASP-2; experiment: cell-based or functional assay; remark: listed apart in the source
[5] = molecular target: T2, human MASP-2; experiment: cell-based or functional assay; remark: listed apart in the source
[6] = molecular target: T1, African Green monkey MASP-2 (in African …); experiment: cell-based or functional assay; remark: listed apart in the source
[7] = molecular target: T2, human MASP-2; experiment: cell-based or functional assay; remark: listed apart in the source
[8] = molecular target: T3, human MASP-2A (catalytically inactive human MASP-2, Ser618 to Ala618) (human, UniProt O00187 16-686); experiment: SPR (Biacore), MASP-2A amine coupled to CM5 chip, scFv monomer in solution
T3 construct: the ELISA and Biacore methods say only 'MASP-2A', so a tag may have been present; also called huMASP2A; huMASP-2A

[9] = molecular target: T2, human MASP-2; experiment: cell-based or functional assay; remark: listed apart in the source
[10] = molecular target: T1, African Green monkey MASP-2 (in African …); experiment: cell-based or functional assay; remark: listed apart in the source
[11] = molecular target: T2, human MASP-2; experiment: cell-based or functional assay; remark: listed apart in the source

T2 sequence (O00187 16-686): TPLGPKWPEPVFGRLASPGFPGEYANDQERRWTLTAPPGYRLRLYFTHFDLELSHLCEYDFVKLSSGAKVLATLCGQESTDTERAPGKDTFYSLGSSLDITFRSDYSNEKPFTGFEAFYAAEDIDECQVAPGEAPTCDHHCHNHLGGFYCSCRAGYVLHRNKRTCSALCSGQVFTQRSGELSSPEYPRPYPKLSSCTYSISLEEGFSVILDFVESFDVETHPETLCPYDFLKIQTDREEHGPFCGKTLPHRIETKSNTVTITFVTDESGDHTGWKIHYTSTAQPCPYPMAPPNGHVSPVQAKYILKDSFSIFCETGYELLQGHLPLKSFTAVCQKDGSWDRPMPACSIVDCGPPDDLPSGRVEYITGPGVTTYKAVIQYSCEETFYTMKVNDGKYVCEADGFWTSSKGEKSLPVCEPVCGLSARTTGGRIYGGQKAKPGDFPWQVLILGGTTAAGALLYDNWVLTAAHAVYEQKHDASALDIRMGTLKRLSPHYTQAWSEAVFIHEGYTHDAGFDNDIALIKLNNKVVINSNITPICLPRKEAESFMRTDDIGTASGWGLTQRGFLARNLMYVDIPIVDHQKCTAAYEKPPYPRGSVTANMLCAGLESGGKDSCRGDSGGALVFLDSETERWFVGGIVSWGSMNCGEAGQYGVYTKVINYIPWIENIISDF
rat MASP-2 (in rat serum), sequence (Q9JJS8 other isoform, or with tags, fused parts or gaps limits assumed): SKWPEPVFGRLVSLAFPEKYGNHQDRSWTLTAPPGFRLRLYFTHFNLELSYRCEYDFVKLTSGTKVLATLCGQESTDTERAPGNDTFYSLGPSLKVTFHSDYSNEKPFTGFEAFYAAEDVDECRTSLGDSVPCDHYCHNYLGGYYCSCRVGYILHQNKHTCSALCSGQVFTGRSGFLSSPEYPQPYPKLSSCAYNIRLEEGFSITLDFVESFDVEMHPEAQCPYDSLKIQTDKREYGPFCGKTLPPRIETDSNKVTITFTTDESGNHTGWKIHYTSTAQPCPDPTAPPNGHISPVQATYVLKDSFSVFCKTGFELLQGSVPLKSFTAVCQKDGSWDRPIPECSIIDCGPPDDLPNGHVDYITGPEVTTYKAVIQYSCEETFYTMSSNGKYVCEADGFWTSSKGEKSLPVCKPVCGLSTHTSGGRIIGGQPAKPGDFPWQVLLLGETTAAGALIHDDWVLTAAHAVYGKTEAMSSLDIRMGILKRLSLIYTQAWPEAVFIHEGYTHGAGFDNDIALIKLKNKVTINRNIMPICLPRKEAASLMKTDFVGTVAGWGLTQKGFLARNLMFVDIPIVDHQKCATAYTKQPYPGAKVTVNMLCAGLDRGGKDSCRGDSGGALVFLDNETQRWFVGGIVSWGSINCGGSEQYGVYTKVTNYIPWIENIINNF
T3 sequence (O00187 16-686 S633A): as the sequence (O00187 16-686) above, with S618A counted along it

| Binder | C3 convertase assay using 1% human serum, IC50 (first experiment) [4] | C3 convertase assay using 1% human serum, IC50 (second experiment) [4] | Inhibitory activity in Human Serum IC50 (C3b deposition, 0.5% human serum) [5] | Functional IC50, C3b deposition, non-human primate serum Exp #1 [6] | Functional IC50, C3b deposition, non-human primate serum Exp #2 [6] | Functional IC50, C3b deposition, human serum Exp #1 [7] | Functional IC50, C3b deposition, human serum Exp #2 [7] | Functional IC50, C3b deposition, human serum Exp #3 [7] | Functional IC50, C3b deposition, human serum Exp #4 [7] | also measured |
| --- | --- | --- | --- | --- | --- | --- | --- | --- | --- | --- |
| B1 | – | – | – | – | – | – | – | – | – | African Green Monkey C3 assay IC50 [1]: 16 nM; Inhibition of Rat C3b IC50 [2]: 500 nM |
| B2 | – | – | – | – | – | – | – | – | – | African Green Monkey C3 assay IC50 [1]: 14 nM; Inhibition of Rat C3b IC50 [2]: > 500 nM |
| B3 | 33.9 nM | 22 nM | – | – | – | – | – | – | – | C3b deposition assay in 1% human serum, IC50 [3]: 59 nM; C3 convertase assay using 1% human serum, fold improvement of IC50 (scFv to divalent form), first experiment [4]: ~4.7 fold; C3 convertase assay using 1% human serum, fold improvement of IC50 (scFv to divalent form), second experiment [4]: ~8.7 fold |
| B4 | – | – | 20.6 nM | 114 nM | 173 nM | 20.6 nM | 36.7 nM | 41.4 nM | 68.8 nM | – |
| B5 | – | – | 28.9 nM | 99.3 nM | 77.1 nM | 28.9 nM | 120 nM | 17.3 nM | 24.3 nM | Kd [8]: 220 nM |
| B6 | 5.45 nM | 3.09 nM | – | – | – | – | – | – | – | C3b deposition assay in 90% NHS, IC50 [9]: 15 nM; C3b deposition assay in 1% human serum, IC50 [3]: ~20 nM |
| B7 | 160 nM | 193 nM | 6.1 nM | 65.6 nM | 128 nM | 6.1 nM | 96.8 nM | 52.3 nM | 53.5 nM | C3 Assay IC50, non-human primate serum Exp #1 [10]: 65 nM; C3 Assay IC50, non-human primate serum Exp #2 [10]: 154 nM; C3 Assay IC50, non-human primate serum mean [10]: 110 nM; C3 Assay IC50 in dilute serum (1%), human serum Exp #1 [11]: 53 nM; C3 Assay IC50 in dilute serum (1%), human serum Exp #2 [11]: 52 nM; C3 Assay IC50 in dilute serum (1%), human serum Exp #3 [11]: 97 nM; C3 Assay IC50 in dilute serum (1%), human serum mean [11]: 67 nM |

From patent publication US20170088632A1 (OMEROS, published 2017)
